The values below come from the supplement of paper PMC11246515.

± gives the standard deviation of the averaged measurements. A value given as a limit tells only on which side of the number the result lay.

The data set can be described thus: total protein half-life in vivo (active degradation + dilution); higher = more stable protein.
Setting [1] is: E. coli NCM3722 delta-clpP delta-lon delta-hslV, growth: N-lim chemostat, doubling time 6 h.
Setting [2] is: E. coli NCM3722 delta-clpP, growth: N-lim chemostat, doubling time 6 h.
The mark [3] stands for this setting: E. coli NCM3722 delta-hslV, growth: N-lim chemostat, doubling time 6 h.
Setting [4] is: E. coli NCM3722 delta-lon, growth: N-lim chemostat, doubling time 6 h.
Setting [5] is: E. coli NCM3722 delta-smpB, growth: N-lim chemostat, doubling time 6 h.
[6] abbreviates: wild type E. coli NCM3722, growth: C-lim chemostat, doubling time 3 h.
[7] abbreviates: wild type E. coli NCM3722, growth: C-lim chemostat, doubling time 6 h.
[8] abbreviates: wild type E. coli NCM3722, growth: C-lim chemostat, doubling time 12 h.
The mark [9] stands for this setting: wild type E. coli NCM3722, growth: N-lim chemostat, doubling time 6 h.
[10] abbreviates: wild type E. coli NCM3722, growth: N-lim chemostat, doubling time 12 h.
The mark [11] stands for this setting: wild type E. coli NCM3722, growth: P-lim chemostat, doubling time 6 h.
The mark [12] stands for this setting: wild type E. coli NCM3722, growth: P-lim chemostat, doubling time 12 h.

Turning to “MQENYKILVVDDDMRLRALLERYLTEQGFQVRSVANAEQMDRLLTRESFHLMVLDLMLPGEDGLSICRRLRSQSNPMPIIMVTAKGEEVDRIVGLEIGADDYIPKPFNPRELLARIRAVLRRQANELPGAPSQEEAVIAFGKFKLNLGTREMFREDEPMPLTSGEFAVLKALVSHPREPLSRDKLMNLARGREYSAMERSIDVQISRLRRMVEEDPAHPRYIQTVWGLGYVFVPDGSKA [P0AA16]”, the “total protein half-life in vivo” value is, setting by setting: under setting [1], 5.29 ± 0.46 h; under setting [2], 6.03 ± 1.6 h; under setting [3], 5.25 ± 0.31 h; under setting [4], 6.35 ± 0.91 h; under setting [5], 4.73 ± 0.46 h; under setting [6], 3.32 ± 0.41 h. In addition, the “total protein half-life in vivo” value stood at 5.849 ± 0.017 h under setting [7]; 10.3 ± 0.2 h under setting [8]; 4.67 ± 0.22 h under setting [9]; 8.55 ± 0.08 h under setting [10]; 5.66 ± 0.17 h under setting [11]; 11 ± 0.14 h under setting [12].
As to “MIPQISQAPGVVQLVLNFLQELEQQGFTGDTATSYADRLTMSTDNSIYQLLPDAVVFPRSTADVALIARLAAQERYSSLIFTPRGGGTGTNGQALNQGIIVDMSRHMNRIIEINPEEGWVRVEAGVIKDQLNQYLKPFGYFFAPELSTSNRATLGGMINTDASGQGSLVYGKTSDHVLGVRAVLLGGDILDTQPLPVELAETLGKSNTTIGRIYNTVYQRCRQQRQLIIDNFPKLNRFLTGYDLRHVFNDEMTEFDLTRILTGSEGTLAFITEARLDITRLPKVRRLVNVKYDSFDSALRNAPFMVEARALSVETVDSKVLNLAREDIVWHSVSELITDVPDQEMLGLNIVEFAGDDEALIDERVNALCARLDELIASHQAGVIGWQVCRELAGVERIYAMRKKAVGLLGNAKGAAKPIPFAEDTCVPPEHLADYIAEFRALLDSHGLSYGMFGHVDAGVLHVRPALDMCDPQQEILMKQISDDVVALTAKYGGLLWGEHGKGFRAEYSPAFFGEELFAELRKVKAAFDPHNRLNPGKICPPEGLDAPMMKVDAVKRGTFDRQIPIAVRQQWRGAMECNGNGLCFNFDARSPMCPSMKITQNRIHSPKGRATLVREWLRLLADRGVDPLKLEQELPESGVSLRTLIARTRNSWHANKGEYDFSHEVKEAMSGCLACKACSTQCPIKIDVPEFRSRFLQLYHTRYLRPLRDHLVATVESYAPLMARAPKTFNFFINQPLVRKLSEKHIGMVDLPLLSVPSLQQQMVGHRSANMTLEQLESLNAEQKARTVLVVQDPFTSYYDAQVVADFVRLVEKLGFQPVLLPFSPNGKAQHIKGFLNRFAKTAKKTADFLNRMAKLGMPMVGVDPALVLCYRDEYKLALGEERGEFNVLLANEWLASALESQPVATVSGESWYFFGHCTEVTALPGAPAQWAAIFARFGAKLENVSVGCCGMAGTYGHEAKNHENSLGIYELSWHQAMQRLPRNRCLATGYSCRSQVKRVEGTGVRHPVQALLEIIK”, the “total protein half-life in vivo” value amounted to 5.93 ± 0.31 h under setting [1]; 5.92 ± 0.38 h under setting [2]; 6.06 ± 0.28 h under setting [3]; 6.07 ± 0.22 h under setting [4]; 5.58 ± 0.1 h under setting [5]; 2.92 ± 0.41 h under setting [6]. Also, the “total protein half-life in vivo” value under setting [7] stood at 5.76 ± 0.42 h; the “total protein half-life in vivo” value under setting [8] is 11.1 ± 0.65 h; the “total protein half-life in vivo” value under setting [9] was 5.75 ± 0.096 h; the “total protein half-life in vivo” value under setting [10] amounted to 12.3 ± 0.23 h; the “total protein half-life in vivo” value under setting [11] was 5.88 ± 0.11 h; the “total protein half-life in vivo” value under setting [12] was 11.6 ± 0.3 h.
For “MYVAVKGGEKAIDAAHALQESRRRGDTDLPELSVAQIEQQLNLAVDRVMTEGGIADRELAALALKQASGDNVEAIFLLRAYRTTLAKLAVSEPLDTTGMRLERRISAVYKDIPGGQLLGPTYDYTHRLLDFTLLANGEAPTLTTADSEQQPSPHVFSLLARQGLAKFEEDSGAQPDDITRTPPVYPCSRSSRLQQLMRGDEGYLLALAYSTQRGYGRNHPFAGEIRSGYIDVSIVPEELGFAVNVGELLMTECEMVNGFIDPPGEPPHFTRGYGLVFGMSERKAMAMALVDRALQAPEYGEHATGPAQDEEFVLAHADNVEAAGFVSHLKLPHYVDFQAELELLKRLQQEQNHG”, the “total protein half-life in vivo” value is, setting by setting: under setting [11], 0.609 ± 0.46 h; under setting [12], 1.36 ± 0.41 h.
Turning to “MLEMLMQWYRRRFSDPEAIALLVILVAGFGIIFFFSGLLAPLLVAIVLAYLLEWPTVRLQSIGCSRRWATSIVLVVFVGILLLMAFVVLPIAWQQGIYLIRDMPGMLNKLSDFAATLPRRYPALMDAGIIDAMAENMRSRMLTMGDSVVKISLASLVGLLTIAVYLVLVPLMVFFLLKDKEQMLNAVRRVLPRNRGLAGQVWKEMNQQITNYIRGKVLEMIVVGIATWLGFLLFGLNYSLLLAVLVGFSVLIPYIGAFVVTIPVVGVALFQFGAGTEFWSCFAVYLIIQALDGNLLVPVLFSEAVNLHPLVIILSVVIFGGLWGFWGVFFAIPLATLIKAVIHAWPDGQIAQE [P0AFI9]”, the “total protein half-life in vivo” value was more than 8 h under setting [1]; more than 8 h under setting [5]; more than 4 h under setting [6]; 6.12 ± 0.64 h under setting [7]; 12.2 ± 0.49 h under setting [8]; 10.4 ± 1.8 h under setting [10].
For the sequence “MATDSTQCVKKSRGRPKVFDRDAALDKAMKLFWQHGYEATSLADLVEATGAKAPTLYAEFTNKEGLFRAVLDRYIDRFAAKHEAQLFCEEKSVESALADYFAAIANCFTSKDTPAGCFMINNCTTLSPDSGDIANTLKSRHAMQERTLQQFLCQRQARGEIPPHCDVTHLAEFLNCIIQGMSISAREGASLEKLMQIAGTTLRLWPELVK”, the “total protein half-life in vivo” value was 5.38 ± 0.14 h under setting [1]; 3.65 ± 0.34 h under setting [2]; 1.46 ± 0.015 h under setting [3]; 2.04 ± 0.17 h under setting [4]; 1.57 ± 0.097 h under setting [5]; 1.69 ± 0.081 h under setting [6]. In addition, the “total protein half-life in vivo” value under setting [7] amounted to 2.99 ± 0.34 h; the “total protein half-life in vivo” value under setting [8] amounted to 4.6 ± 0.59 h; the “total protein half-life in vivo” value under setting [9] is 1.78 ± 0.021 h; the “total protein half-life in vivo” value under setting [10] stood at 2.32 ± 0.54 h; the “total protein half-life in vivo” value under setting [11] amounted to 2.49 ± 0.15 h; the “total protein half-life in vivo” value under setting [12] stood at 3.73 ± 1.1 h.
With “MQDLISQVEDLAGIEIDHTTSMVMIFGIIFLTAVVVHIILHWVVLRTFEKRAIASSRLWLQIITQNKLFHRLAFTLQGIIVNIQAVFWLQKGTEAADILTTCAQLWIMMYALLSVFSLLDVILNLAQKFPAASQLPLKGIFQGIKLIGAILVGILMISLLIGQSPAILISGLGAMAAVLMLVFKDPILGLVAGIQLSANDMLKLGDWLEMPKYGADGAVIDIGLTTVKVRNWDNTITTIPTWSLVSDSFKNWSGMSASGGRRIKRSISIDVTSIRFLDEDEMQRLNKAHLLKPYLTSRHQEINEWNRQQGSTESVLNLRRMTNIGTFRAYLNEYLRNHPRIRKDMTLMVRQLAPGDNGLPLEIYAFTNTVVWLEYESIQADIFDHIFAIVEEFGLRLHQSPTGNDIRSLAGAFKQ [P0AAT4]”, the “total protein half-life in vivo” value runs as follows: under setting [1], 6.49 ± 0.43 h; under setting [2], 6.36 ± 0.28 h; under setting [3], 6.274 ± 0.01 h; under setting [4], 6.69 ± 1.4 h; under setting [5], 6.33 ± 0.022 h; under setting [6], 3.52 ± 0.6 h. The “total protein half-life in vivo” value under setting [7] was 6.12 ± 0.22 h; the “total protein half-life in vivo” value under setting [8] was 13.9 ± 0.19 h; the “total protein half-life in vivo” value under setting [9] stood at 6.22 ± 0.46 h; the “total protein half-life in vivo” value under setting [10] stood at 12 ± 1.6 h; the “total protein half-life in vivo” value under setting [11] amounted to 5.84 ± 0.59 h; the “total protein half-life in vivo” value under setting [12] worked out at 13.7 ± 1.2 h.
As to “MSLAGKKIVLGVSGGIAAYKTPELVRRLRDRGADVRVAMTEAAKAFITPLSLQAVSGYPVSDSLLDPAAEAAMGHIELGKWADLVILAPATADLIARVAAGMANDLVSTICLATPAPVAVLPAMNQQMYRAAATQHNLEVLASRGLLIWGPDSGSQACGDIGPGRMLDPLTIVDMAVAHFSPVNDLKHLNIMITAGPTREPLDPVRYISNHSSGKMGFAIAAAAARRGANVTLVSGPVSLPTPPFVKRVDVMTALEMEAAVNASVQQQNIFIGCAAVADYRAATVAPEKIKKQATQGDELTIKMVKNPDIVAGVAALKDHRPYVVGFAAETNNVEEYARQKRIRKNLDLICANDVSQPTQGFNSDNNALHLFWQDGDKVLPLERKELLGQLLLDEIVTRYDEKNRR [P0ABQ0]”, the “total protein half-life in vivo” value worked out at 6.25 ± 0.61 h under setting [1]; 6.16 ± 0.64 h under setting [2]; 5.48 ± 0.55 h under setting [3]; 5.48 ± 0.67 h under setting [4]; 4.75 ± 0.079 h under setting [5]; 3.15 ± 0.096 h under setting [6]. Further, the “total protein half-life in vivo” value is, setting by setting: under setting [7], 5.63 ± 0.26 h; under setting [8], 12.5 ± 3.3 h; under setting [9], 4.7 ± 0.6 h; under setting [10], 8.72 ± 0.93 h; under setting [11], 6.17 ± 0.24 h; under setting [12], 11.8 ± 0.15 h.
For “MTTLAIDIGGTKLAAALIGADGQIRDRRELPTPASQTPEALRDALSALVSPLQAHAQRVAIASTGIIRDGSLLALNPHNLGGLLHFPLVKTLEQLTNLPTIAINDAQAAAWAEFQALDGDITDMVFITVSTGVGGGVVSGCKLLTGPGGLAGHIGHTLADPHGPVCGCGRTGCVEAIASGRGIAAAAQGELAGADAKTIFTRAGQGDEQAQQLIHRSARTLARLIADIKATTDCQCVVVGGSVGLAEGYLALVETYLAQEPAAFHVDLLAAHYRHDAGLLGAALLAQGEKL”, the “total protein half-life in vivo” value runs as follows: under setting [1], 4.69 ± 0.65 h; under setting [2], 4.78 ± 0.069 h; under setting [3], 4.19 ± 0.69 h; under setting [4], 3.56 ± 1.9 h; under setting [5], 4.85 ± 0.36 h; under setting [6], 2.57 ± 0.17 h. Also, the “total protein half-life in vivo” value under setting [7] is 5 ± 0.45 h; the “total protein half-life in vivo” value under setting [8] stood at 9.07 ± 0.36 h; the “total protein half-life in vivo” value under setting [9] was found to be 5.02 ± 0.21 h; the “total protein half-life in vivo” value under setting [10] stood at 5.13 ± 2.2 h; the “total protein half-life in vivo” value under setting [12] came to 10.5 ± 0.22 h.
